# Data from doi:10.1101/2025.04.19.649678.
# Read-outs that look alike come from different tables or passages of the source.
# Legend:
# GPR3-BRIL fusion protein [1] = biological target: GPR3-BRIL fusion protein (UniProt P46089); test: cryo-EM structure
# GPR3-BRIL fusion protein [2] = biological target: GPR3-BRIL fusion protein (UniProt P46089); test: cryo-EM structure; remark: listed apart in the source
substance,measurement,setting,value
GPR3-BRIL fusion protein (from UniProt P46089 1-222; P46089 240-330) (receptor),stoichiometry N,GPR3-BRIL fusion protein [1],2
same,stoichiometry N,GPR3-BRIL fusion protein [2],2
